Measured values taken from publication PMC7511445 (Journal of immunology (Baltimore, Md. : 1950), 2020).
Changes are numbered by the printed parent chain. Numbers in names are those of the source.

B1: phosphorylated full-length human IRF-3 E388A (natural protein, UniProt Q14653 1-427, looked up)
chain: MGTPKPRILPWLVSQLDLGQLEGVAWVNKSRTRFRIPWKHGLRQDAQQEDFGIFQAWAEATGAYVPGRDKPDLPTWKRNFRSALNRKEGLRLAEDRSKDPHDPHKIYEFVNSGVGDFSQPDTSPDTNGGGSTSDTQEDILDELLGNMVLAPLPDPGPPSLAVAPEPCPQPLRSPSLDNPTPFPNLGPSENPLKRLLVPGEEWEFEVTAFYRGRQVFQQTISCPEGLRLVGSEVGDRTLPGWPVTLPDPGMSLTDRGVMSYVRHVLSCLGGGLALWRAGQWLWAQRLGHCHTYWAVSEELLPNSGHGPDGEVPKDKEGGVFDLGPFIVDLITFTEGSGRSPRYALWFCVGESWPQDQPWTKRLVMVKVVPTCLRALVEMARVGGASSLANTVDLHISNSHPLSLTSDQYKAYLQDLVEGMDFQGPGES
modifications: phosphorylated in vitro by GST-mTBK1; the phosphorylated residues are not listed
B2: phosphorylated full-length human IRF-3 S339A (natural protein, UniProt Q14653 1-427, looked up)
chain: B1 chain with S339A, A388E
modifications: phosphorylated in vitro by GST-mTBK1; the phosphorylated residues are not listed
B3: phosphorylated full-length human IRF-3 R285A (natural protein, UniProt Q14653 1-427, looked up)
chain: B1 chain with R285A, A388E
modifications: phosphorylated in vitro by GST-mTBK1; the phosphorylated residues are not listed
B4: phosphorylated full-length human IRF-3 R285A/K313A (natural protein, UniProt Q14653 1-427, looked up)
chain: B1 chain with R285A, K313A, A388E
modifications: phosphorylated in vitro by GST-mTBK1; the phosphorylated residues are not listed
B5: phosphorylated full-length human IRF-3 H290A/K313A (natural protein, UniProt Q14653 1-427, looked up)
chain: B1 chain with H290A, K313A, A388E
modifications: phosphorylated in vitro by GST-mTBK1; the phosphorylated residues are not listed
B6: phosphorylated full-length human IRF-3 H288A/H290A/K313A (natural protein, UniProt Q14653 1-427, looked up)
chain: B1 chain with H288A, H290A, K313A, A388E
modifications: phosphorylated in vitro by GST-mTBK1; the phosphorylated residues are not listed
B7: phosphorylated full-length human IRF-3 H288A (natural protein, UniProt Q14653 1-427, looked up)
chain: B1 chain with H288A, A388E
modifications: phosphorylated in vitro by GST-mTBK1; the phosphorylated residues are not listed
B8: phosphorylated full-length human IRF-3 H290A (natural protein, UniProt Q14653 1-427, looked up)
chain: B1 chain with H290A, A388E
modifications: phosphorylated in vitro by GST-mTBK1; the phosphorylated residues are not listed
B9: phosphorylated full-length human IRF-3 K313A (natural protein, UniProt Q14653 1-427, looked up)
chain: B1 chain with K313A, A388E
modifications: phosphorylated in vitro by GST-mTBK1; the phosphorylated residues are not listed
B10: phosphorylated full-length human IRF-3 S396A (natural protein, UniProt Q14653 1-427, looked up)
chain: B1 chain with A388E, S396A
modifications: phosphorylated in vitro by GST-mTBK1; the phosphorylated residues are not listed

Target: the molecule itself
Assay: SEC

| Protein | binding result |
| --- | --- |
| B1 | binds |
| B2 | binds |
| B3 | binds |
| B4 | binds |
| B5 | binds |
| B6 | binds |
| B7 | binds |
| B8 | binds |
| B9 | binds |

Target: the molecule itself
Assay: native gel or EMSA

| Protein | binding result |
| --- | --- |
| B10 | binds |
